From patent US20250340591A1, “COMPOSITION FOR PREVENTING OR TREATING INFLAMMATORY BOWEL DISEASE CONTAINING NOVEL COMPOUND” (ANYGEN CO., LTD., priority 2021, published 2025)
Square brackets hold non-standard residues; d marks the D form. Ends that are not written are not given here. * marks the point of attachment. DAMP‑2 = 1,3-bis(2-cyclohexylethyl) substitution on the histidine imidazole ring (1,3-bis(2-cyclohexylethyl)-2,3-dihydro-1H-imidazol-4-yl side chain), C1=C(*)N(CCC2CCCCC2)CN1CCC1CCCCC1; 2‑(4-tert-butyl)phenyl = 2-(4-tert-butylphenyl) substituent on the histidine imidazole (2-(4-(tert-butyl)phenyl)-1H-imidazol-4-yl), CC(C)(C)c1ccc(*)cc1; DAMP‑5 = 3-(2-cyclohexylethyl) substitution on the histidine imidazole ring (3-(2-cyclohexylethyl)-2,3-dihydro-1H-imidazol-4-yl side chain); DAMP‑3 = 1,3-diphenethyl substitution on the histidine imidazole ring (1,3-diphenethyl-2,3-dihydro-1H-imidazol-4-yl side chain); thiophene = 2-(thiophen-2-yl) substituent on the histidine imidazole (2-(thiophen-2-yl)-1H-imidazol-4-yl), c1csc(*)c1; 4‑methoxybenzhydryl = (4-methoxyphenyl)(phenyl)methyl on the His imidazole, COc1ccc(C(c2ccccc2)*)cc1; 1,2‑diphenyl = 1,2-diphenyl substituents on the histidine imidazole (1,2-diphenyl-1H-imidazol-4-yl); 1‑phenyl = 1-phenyl substituent on the histidine imidazole (1-phenyl-1H-imidazol-4-yl), c1ccc(*)cc1; 2‑phenyl = 2-phenyl substituent on the histidine imidazole (2-phenyl-1H-imidazol-4-yl), c1ccc(*)cc1; 4‑hydroxybenzhydryl = (4-hydroxyphenyl)(phenyl)methyl on the His imidazole, Oc1ccc(C(c2ccccc2)*)cc1; Tyr(3,5-(NO2)2) = N[C@@H](Cc1cc([N+](=O)[O-])c(O)c([N+](=O)[O-])c1)C(=O)O; Tyr(3-NO2) = N[C@@H](Cc1ccc(O)c([N+](=O)[O-])c1)C(=O)O; 4‑methoxylbenzhydryl = COc1ccc(C(c2ccccc2)*)cc1; Biotin = O=C1N[C@H]2[C@H](CS[C@H]2CCCCC(=O)*)N1; dPhe(4-CF3) = N[C@H](Cc1ccc(C(F)(F)F)cc1)C(=O)O; 1‑(4-tert-butyl)phenyl = CC(C)(C)c1ccc(*)cc1; Tyr(3-Cl) = N[C@@H](Cc1ccc(O)c(Cl)c1)C(=O)O; Tyr(3-NH2) = Nc1cc(C[C@H](N)C(=O)O)ccc1O; dPhe(4-Cl) = N[C@H](Cc1ccc(Cl)cc1)C(=O)O; dPhe(4-Me) = Cc1ccc(C[C@@H](N)C(=O)O)cc1; Mtt = Cc1ccc(C(c2ccccc2)(c2ccccc2)*)cc1; Trt = c1ccc(C(c2ccccc2)(c2ccccc2)*)cc1; Benzhydryl = c1ccc(C(c2ccccc2)*)cc1; 2‑cyclohexylethyl = C1CCC(CC*)CC1; Tos = Cc1ccc(S(=O)(=O)*)cc1; Octanoyl = CCCCCCCC(=O)*

T1: GPR39 (G protein coupled receptor 39) (UniProt O43194 1-453, limits assumed)
T1 sequence (looked up): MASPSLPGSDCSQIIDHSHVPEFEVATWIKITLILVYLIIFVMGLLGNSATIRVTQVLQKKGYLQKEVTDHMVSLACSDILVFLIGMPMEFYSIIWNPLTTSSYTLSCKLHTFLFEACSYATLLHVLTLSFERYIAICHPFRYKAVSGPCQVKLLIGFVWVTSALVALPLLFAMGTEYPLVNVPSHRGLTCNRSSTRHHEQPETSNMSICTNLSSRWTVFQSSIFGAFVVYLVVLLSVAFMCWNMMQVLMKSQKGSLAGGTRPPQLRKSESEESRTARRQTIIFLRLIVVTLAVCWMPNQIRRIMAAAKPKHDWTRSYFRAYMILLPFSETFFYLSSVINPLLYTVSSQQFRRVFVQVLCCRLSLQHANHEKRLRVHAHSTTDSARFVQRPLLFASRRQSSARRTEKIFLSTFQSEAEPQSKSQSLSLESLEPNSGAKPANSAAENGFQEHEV


Target: T1, GPR39 (G protein coupled receptor 39)
Experiment: cell-based or functional assay

Point of comparison: Lys(Octanoyl)-Phe-Tyr [HKFY-54], “EC50; SRE-luciferase reporter” value 25900 nM. Against it:
- H(Benzhydryl)K(Octanoyl)[dPhe(4-Me)]Y-NH2 [HKFY-66] — 2400-fold lower, 11 nM
- H(2‑(4-tert-butyl)phenyl)K(Octanoyl)[dPhe(4-Me)]Y-OH [HKFY-60] — 140-fold lower, 190 nM
- [dH](Trt)K(Octanoyl)[dPhe(4-Cl)][dY] [HKFY-14] — 1300-fold lower, 20 nM
- H(Benzhydryl)K(Octanoyl)[dPhe(4-Me)][Tyr(3-NH2)]-OH [HKFY-70] — 1300-fold lower, 20 nM
- H(Trt)K(Octanoyl)FS [HKFY-50] — 37-fold lower, 700 nM
- HK(Octanoyl)FY (not fully specified; also: His1 substituent: phenethyl or phenylpropyl) [HKFY-19] — within 1.5-fold, 24600 nM
- H(Trt)[dK](Octanoyl)[dPhe(4-Cl)]Y [HKFY-16] — 110-fold lower, 240 nM
- H(Benzhydryl)K(Octanoyl)[dPhe(4-Me)][Tyr(3-Cl)]-OH [HKFY-67] — 600-fold lower, 43 nM
- H(Trt)FYDQQARF (also: C-terminal Phe amide in IUPAC name, not in sequence formula) [HKFY-52] — 2.2-fold higher, 56400 nM
- H(Trt)K(Octanoyl)[dPhe(4-Cl)]Y [HKFY-13] — 1800-fold lower, 14 nM
- H(1,2‑diphenyl)K(Octanoyl)[dPhe(4-Me)]Y-OH [HKFY-59] — 47-fold lower, 550 nM
- H(4‑methoxylbenzhydryl)K(Octanoyl)FY [HKFY-20] — 6.1-fold higher, 159000 nM
- H(1‑phenyl)K(Octanoyl)[dPhe(4-Me)]Y-OH [HKFY-58] — 1300-fold lower, 20 nM
- H(Tos)K(Octanoyl)[dPhe(4-Me)]Y-OH [HKFY-75] — 26000-fold lower, 1 nM
- H(thiophene)K(Octanoyl)[dPhe(4-Me)]Y-OH [HKFY-63] — 4300-fold lower, 6 nM
- H(Fm)K(Octanoyl)FY [HKFY-18] — 11-fold lower, 2290 nM
- H(Trt)K(Octanoyl)[dPhe(4-CF3)]Y-OH [HKFY-76] — 3700-fold lower, 7 nM
- H(Benzhydryl)K(Octanoyl)[dPhe(4-Me)][Tyr(3-NO2)]-OH [HKFY-68] — 2000-fold lower, 13 nM
- His(Benzhydryl)-Lys(Octanoyl)-OH [HKFY-79] — 27-fold lower, 970 nM
- HK(Octanoyl)FY (not fully specified (residue 1)) [HKFY-17] — 3.2-fold lower, 8120 nM
- K(Octanoyl)H(Trt)FY [HKFY-55] — 10-fold lower, 2490 nM
- H(Trt)K(Octanoyl)FY [HKFY-1] — 170-fold lower, 150 nM
- H(Mtt)K(Octanoyl)FY [HKFY-5] — 14-fold lower, 1840 nM
- H(1‑(4-tert-butyl)phenyl)K(Octanoyl)[dPhe(4-Me)]Y-OH [HKFY-61] — 1300-fold lower, 20 nM
- H(Trt)K(Octanoyl)LY-OH [HKFY-51] — 220-fold lower, 120 nM
- Biotin-H(Benzhydryl)K(Octanoyl)[dPhe(4-Me)]Y-OH [HKFY-72] — 2400-fold lower, 11 nM
- H(Benzhydryl)K(Octanoyl)[dPhe(4-Me)][Tyr(3,5-(NO2)2)] [HKFY-69] — 1700-fold lower, 15 nM
- H(DAMP‑3)K(Octanoyl)FY [HKFY-6] — 2.6-fold higher, 68400 nM
- [dH](Benzhydryl)K(Octanoyl)[dPhe(4-Me)]Y-OH [HKFY-62] — 31-fold lower, 830 nM
- H(Trt)K(Octanoyl)[dF]Y-OH (not fully specified; printed as His(trt)-Lys(caprylic)-d-Phe-Tyr) [HKFY-12] — 740-fold lower, 35 nM
- H(Trt)GSK(Octanoyl)FY-OH [HKFY-53] — 76-fold lower, 340 nM
- H(4‑methoxybenzhydryl)K(Octanoyl)[dPhe(4-Me)]Y-OH [HKFY-64] — 3700-fold lower, 7 nM
- H(2‑cyclohexylethyl)K(Octanoyl)FY [HKFY-11] — 2.2-fold higher, 57800 nM
- HK(Octanoyl)FY (not fully specified (residue 1)) [HKFY-10] — 1.8-fold higher, 46500 nM
- H(Trt)K(Octanoyl)[dPhe(4-Cl)][dY] [HKFY-15] — 260-fold lower, 98 nM
- H(4‑hydroxybenzhydryl)K(Octanoyl)[dPhe(4-Me)]Y-OH [HKFY-65] — 8600-fold lower, 3 nM
- H(2‑phenylethyl)K(Octanoyl)FY-OH (not fully specified) [HKFY-9] — 1.6-fold higher, 42700 nM
- H(2‑phenyl)K(Octanoyl)[dPhe(4-Me)]Y-OH [HKFY-57] — 100-fold lower, 260 nM
- H(DAMP‑2)K(Octanoyl)FY [HKFY-8] — within 1.5-fold, 33600 nM
- H(DAMP‑5)K(Octanoyl)FY [HKFY-7] — 17-fold lower, 1560 nM
- Biotin-H(Trt)K(Octanoyl)FY [HKFY-2] — 180-fold lower, 140 nM

Point of comparison: H(Benzhydryl)K(Octanoyl)[dPhe(4-Me)][Tyr(3-Cl)]-OH [HKFY-67], “ECmax; SRE-luciferase reporter” value 10.2 -fold induction over basal. Against it:
- H(Benzhydryl)K(Octanoyl)[dPhe(4-Me)]Y-NH2 [HKFY-66] — higher, 20.2 -fold induction over basal
- H(2‑(4-tert-butyl)phenyl)K(Octanoyl)[dPhe(4-Me)]Y-OH [HKFY-60] — higher, 28.2 -fold induction over basal
- [dH](Trt)K(Octanoyl)[dPhe(4-Cl)][dY] [HKFY-14] — higher, 20.9 -fold induction over basal
- H(Benzhydryl)K(Octanoyl)[dPhe(4-Me)][Tyr(3-NH2)]-OH [HKFY-70] — lower, 10.1 -fold induction over basal
- H(Trt)K(Octanoyl)FS [HKFY-50] — higher, 16.2 -fold induction over basal
- HK(Octanoyl)FY (not fully specified; also: His1 substituent: phenethyl or phenylpropyl) [HKFY-19] — higher, 18 -fold induction over basal
- H(Trt)[dK](Octanoyl)[dPhe(4-Cl)]Y [HKFY-16] — higher, 27.9 -fold induction over basal
- H(Trt)FYDQQARF (also: C-terminal Phe amide in IUPAC name, not in sequence formula) [HKFY-52] — higher, 15.5 -fold induction over basal
- H(Trt)K(Octanoyl)[dPhe(4-Cl)]Y [HKFY-13] — higher, 25.7 -fold induction over basal
- H(1,2‑diphenyl)K(Octanoyl)[dPhe(4-Me)]Y-OH [HKFY-59] — lower, 6.76 -fold induction over basal
- H(4‑methoxylbenzhydryl)K(Octanoyl)FY [HKFY-20] — higher, 20.3 -fold induction over basal
- Lys(Octanoyl)-Phe-Tyr [HKFY-54] — lower, 7.8 -fold induction over basal
- H(1‑phenyl)K(Octanoyl)[dPhe(4-Me)]Y-OH [HKFY-58] — lower, 9.12 -fold induction over basal
- H(Tos)K(Octanoyl)[dPhe(4-Me)]Y-OH [HKFY-75] — higher, 15.9 -fold induction over basal
- H(thiophene)K(Octanoyl)[dPhe(4-Me)]Y-OH [HKFY-63] — higher, 13.5 -fold induction over basal
- H(Fm)K(Octanoyl)FY [HKFY-18] — lower, 10 -fold induction over basal
- H(Trt)K(caproic)FYDQQARF (also: C-terminal Phe amide in IUPAC name, not in sequence formula) [HKFY-56] — higher, 14.9 -fold induction over basal
- H(Trt)K(Octanoyl)[dPhe(4-CF3)]Y-OH [HKFY-76] — higher, 14.2 -fold induction over basal
- H(Benzhydryl)K(Octanoyl)[dPhe(4-Me)][Tyr(3-NO2)]-OH [HKFY-68] — higher, 10.8 -fold induction over basal
- His(Benzhydryl)-Lys(Octanoyl)-OH [HKFY-79] — higher, 11.2 -fold induction over basal
- HK(Octanoyl)FY (not fully specified (residue 1)) [HKFY-17] — higher, 20 -fold induction over basal
- K(Octanoyl)H(Trt)FY [HKFY-55] — higher, 16.8 -fold induction over basal
- H(Trt)K(Octanoyl)FY [HKFY-1] — higher, 20.5 -fold induction over basal
- H(Mtt)K(Octanoyl)FY [HKFY-5] — higher, 16 -fold induction over basal
- H(1‑(4-tert-butyl)phenyl)K(Octanoyl)[dPhe(4-Me)]Y-OH [HKFY-61] — lower, 9.88 -fold induction over basal
- H(Trt)K(Octanoyl)LY-OH [HKFY-51] — higher, 14.4 -fold induction over basal
- Biotin-H(Benzhydryl)K(Octanoyl)[dPhe(4-Me)]Y-OH [HKFY-72] — higher, 10.4 -fold induction over basal
- H(Benzhydryl)K(Octanoyl)[dPhe(4-Me)][Tyr(3,5-(NO2)2)] [HKFY-69] — higher, 12.2 -fold induction over basal
- H(DAMP‑3)K(Octanoyl)FY [HKFY-6] — higher, 15 -fold induction over basal
- [dH](Benzhydryl)K(Octanoyl)[dPhe(4-Me)]Y-OH [HKFY-62] — higher, 28.1 -fold induction over basal
- H(Trt)K(Octanoyl)[dF]Y-OH (not fully specified; printed as His(trt)-Lys(caprylic)-d-Phe-Tyr) [HKFY-12] — higher, 20.7 -fold induction over basal
- H(Trt)GSK(Octanoyl)FY-OH [HKFY-53] — lower, 8 -fold induction over basal
- H(4‑methoxybenzhydryl)K(Octanoyl)[dPhe(4-Me)]Y-OH [HKFY-64] — higher, 16 -fold induction over basal
- H(2‑cyclohexylethyl)K(Octanoyl)FY [HKFY-11] — higher, 22 -fold induction over basal
- HK(Octanoyl)FY (not fully specified (residue 1)) [HKFY-10] — higher, 14 -fold induction over basal
- H(Trt)K(Octanoyl)[dPhe(4-Cl)][dY] [HKFY-15] — higher, 24.7 -fold induction over basal
- H(4‑hydroxybenzhydryl)K(Octanoyl)[dPhe(4-Me)]Y-OH [HKFY-65] — higher, 18.3 -fold induction over basal
- H(2‑phenylethyl)K(Octanoyl)FY-OH (not fully specified) [HKFY-9] — higher, 21 -fold induction over basal
- H(2‑phenyl)K(Octanoyl)[dPhe(4-Me)]Y-OH [HKFY-57] — lower, 8.5 -fold induction over basal
- H(DAMP‑2)K(Octanoyl)FY [HKFY-8] — higher, 17.3 -fold induction over basal
- H(DAMP‑5)K(Octanoyl)FY [HKFY-7] — higher, 16 -fold induction over basal
- Biotin-H(Trt)K(Octanoyl)FY [HKFY-2] — higher, 15 -fold induction over basal
